Target: T1, extracellular domain of human PD-L1 (Example 8) (human, UniProt Q9NZQ7 19-238)
T1 construct: extracellular domain; also called PD-L1 antigen; immobilized PD-L1
Assay: ELISA on coated extracellular domain of human PD-L1, serial dilutions
Experimental: Serial dilutions of the antibodies to final concentrations ranging from 0.5 ng/mL to 50 μg/ml were tested by ELISA for binding to the extracellular domain of human PD-L1 coated on a 96 well plate.

T1 sequence (Q9NZQ7 19-238): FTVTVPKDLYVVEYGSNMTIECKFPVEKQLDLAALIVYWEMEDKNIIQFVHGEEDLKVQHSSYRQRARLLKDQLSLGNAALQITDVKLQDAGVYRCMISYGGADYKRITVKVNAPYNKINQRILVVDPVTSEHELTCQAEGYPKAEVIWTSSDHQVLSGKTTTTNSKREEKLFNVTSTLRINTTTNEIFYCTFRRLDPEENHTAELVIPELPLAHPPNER

Row | Binder | binding result
1 | CDR1-010 (other) heavy: QIQLVQSGPELKKPGETVKISCKASGYTFTDYSINWVKRAPGKGLKWMGWINTETREPAYAYDFRGRFAFSLETSASTAYLQINNLKYEDTATYFCALDYSYAMDYWGQGTSVTVSSASTKGPSVFPLAPSSKSTSGGTAALGCLVKDYFPEPVTVSWNSGALTSGVHTFPAVLQSSGLYSLSSVVTVPSSSLGTQTYICNVNHKPSNTKVDKRVEPKSCGGGGSEIVMTQSPSTLSASVGDRVIITCQASEAIYSLLAWYQQKPGKAPKLLIYDASDLASGVPSRFSGSGSGAEFTLTISSLQPDDSATYYCQGNYGSSSSSSYGAVFGQGTKLTVLGGGGGSGGGGSGGGGSGGGGSEVQLVESGGGSVQPGGSLRLSCTVSGIDLSSYTMGWVRQAPGKGLEWVGIISSGGRTYYASWAKGRFTISRDTSKNTVYLQMNSLRAEDTATYYCARGRYTGYPYYFALWGQGTTVTVSS light: DIVLTQSPASLAMSLGKRATISCRASESVSVIGAHLIHWYQQKPGQPPKLLIYLASNLETGVPARFSGSGSGTDFTLTIDPVEEDDVAIYSCLQSRIFPRTFGGGTKLEIKRTVAAPSVFIFPPSDEQLKSGTASVVCLLNNFYPREAKVQWKVDNALQSGNSQESVTEQDSKDSTYSLSSTLTLSKADYEKHKVYACEVTHQGLSSPVTKSFNRGECGGGGSAVVTQEPSLTVSPGGTVTLTCGSSTGAVTTSNYANWVQQKPGKSPRGLIGGTNKRAPGVPARFSGSLLGGKAALTISGAQPEDEADYYCALWYSNHWVFGGGTKLTVLGGGGGSGGGGSGGGGSGGGGSEVQLVESGGGSVQPGGSLRLSCAASGFTFSTYAMNWVRQAPGKGLEWVGRIRSKANNYATYYADSVKGRFTISRDDSKNTLYLQMNSLRAEDTATYYCVRHGNFGDSYVSWFAYWGQGTTVTVSS | binds
2 | CDR1-012 (other) heavy: QIQLVQSGPELKKPGETVKISCKASGYTFTDYSINWVKRAPGKGLKWMGWINTETREPAYAYDFRGRFAFSLETSASTAYLQINNLKYEDTATYFCALDYSYAMDYWGQGTSVTVSSASTKGPSVFPLAPSSKSTSGGTAALGCLVKDYFPEPVTVSWNSGALTSGVHTFPAVLQSSGLYSLSSVVTVPSSSLGTQTYICNVNHKPSNTKVDKRVEPKSCGGGGSEIVMTQSPSTLSASVGDRVIITCQASEDIYSLLAWYQQKPGKAPKLLIYAASDLASGVPSRFSGSGSGAEFTLTISSLQPDDSATYYCQGNYGSSSSSSYGAVFGQGTKLTVLGGGGGSGGGGSGGGGSGGGGSEVQLVESGGGSVQPGGSLRLSCTVSGIDLSSYTMGWVRQAPGKGLEWVGIISSGGRTYYASWAKGRFTISRDTSKNTVYLQMNSLRAEDTATYYCARGRYTGYPYYFALWGQGTTVTVSS light: DIVLTQSPASLAMSLGKRATISCRASESVSVIGAHLIHWYQQKPGQPPKLLIYLASNLETGVPARFSGSGSGTDFTLTIDPVEEDDVAIYSCLQSRIFPRTFGGGTKLEIKRTVAAPSVFIFPPSDEQLKSGTASVVCLLNNFYPREAKVQWKVDNALQSGNSQESVTEQDSKDSTYSLSSTLTLSKADYEKHKVYACEVTHQGLSSPVTKSFNRGECGGGGSAVVTQEPSLTVSPGGTVTLTCGSSTGAVTTSNYANWVQQKPGKSPRGLIGGTNKRAPGVPARFSGSLLGGKAALTISGAQPEDEADYYCALWYSNHWVFGGGTKLTVLGGGGGSGGGGSGGGGSGGGGSEVQLVESGGGSVQPGGSLRLSCAASGFTFSTYAMNWVRQAPGKGLEWVGRIRSKANNYATYYADSVKGRFTISRDDSKNTLYLQMNSLRAEDTATYYCVRHGNFGDSYVSWFAYWGQGTTVTVSS | binds
